Measured values: patent publication US6803203B1, “DNA-PK assay” (Brookhaven Science Associates, priority 1993, dated 2004)
No end group written: not given here.

Molecular target: T1, DNA-PK (Homo sapiens, UniProt P78527)
T1 construct: DNA-PK was purified from HeLa cells; endogenous in cells; host or cells: HeLa S3 cells; the endogenous enzyme was purified in house by chromatography
Assay: DNA-PK activity in extracts of human cell lines
Format: biochemical
Conditions: for Specific Activity + DNA: + calf thymus DNA 10 μg/ml; for Specific Activity + DNA / Specific Activity − DNA: peptide 0.2 mM; for Specific Activity − DNA: no added DNA
Procedure: Extracts of additional primate and rodent cells were tested for the presence of DNA-PK activity in accordance with the method of the present invention. The DNA-PK activity was determined using the methods described in Examples 1, 4 and 5 for seven human cell lines, two African green monkey kidney lines, and six rodent cell lines.
Extracts were prepared essentially as described in Example 10. Cells were lysed by freezing and thawing in hypotonic buffer; soluble (S10) “cytoplasmic” and insoluble in (P10) “nuclear” fractions were made by centrifuging lysates at 10,000×g for 10 min. The insoluble fraction was extracted with buffer containing 0.5 M KCl, which releases any DNA-PK that is bound to DNA. After centrifugation of the salt-washed pellet fraction, which removed the remaining insoluble material, the salt extract (P10S) was diluted and assayed as previously described.
Protein concentrations, determined using the Bio-Rad dye binding assay, were between 0.3 and 6 mg/ml. Extracts were incubated at 30° C. for 10 min with each peptide at 0.2 mM in the absence of added DNA (−DNA) or with 10 μg/ml calf thymus DNA (+DNA). After incubation the reaction mixtures were acidified with an equal volume of 30% acetic acid and spotted on to Whatman P-81 phosphocellulose paper (Whatman, Inc., Clifton, N.J.). The filters then were washed extensively in 15% acetic acid before the adsorbed radioactivity was quantitated as described in Example 5.
The amount of phosphate incorporated was calculated from the specific activity of the ATP. The rate of phosphate incorporation into the Ser-Gln-Glu peptide (Table 1) (SEQ ID NO: 11) in the presence of calf thymus DNA was approximately linear throughout the 10 minute reaction incubation period. Parallel assays were performed without added peptide, and these background values were subtracted to produce the activities that are shown in Table 3. Background values varied but, in all cases, were less than 0.2 nmol/min/mg (a few percent of the activity present in human cells). The specific activities were calculated from the total activity in the two fractions divided by the total protein in the two fractions. The percent of total DNA-PK activity in the S10 and P10S fractions was determined with peptide (SEQ ID NO: 11) in the presence of added calf thymus DNA. Extracts without substantial DNA-PK activity were examined for their ability to inhibit purified DNA-PK. Inhibitory activity was not detected.

Specific Activity + DNA (Human 293-S, P10S): 0.04 nmol PO4/min/mg protein
Specific Activity − DNA (Human 293-S, P10S): 0.0 nmol PO4/min/mg protein
Specific Activity + DNA (Human 293-S, S10): 0.01 nmol PO4/min/mg protein
Specific Activity − DNA (Human 293-S, S10): 0.0 nmol PO4/min/mg protein
Specific Activity + DNA (Human A549, P10S): 0.01 nmol PO4/min/mg protein
Specific Activity − DNA (Human A549, P10S): 0.06 nmol PO4/min/mg protein
Specific Activity + DNA (Human A549, S10): 0.0 nmol PO4/min/mg protein
Specific Activity − DNA (Human A549, S10): 0.02 nmol PO4/min/mg protein
Specific Activity + DNA (Human HPB-ALL, P10S): 0.05 nmol PO4/min/mg protein
Specific Activity − DNA (Human HPB-ALL, P10S): 0.04 nmol PO4/min/mg protein
Specific Activity + DNA (Human HPB-ALL, S10): 0.0 nmol PO4/min/mg protein
Specific Activity − DNA (Human HPB-ALL, S10): 0.04 nmol PO4/min/mg protein
Specific Activity + DNA (Human HeLa-JW, P10S): 0.1 nmol PO4/min/mg protein
Specific Activity − DNA (Human HeLa-JW, P10S): 0.0 nmol PO4/min/mg protein
Specific Activity + DNA (Human HeLa-JW, S10): 0.1 nmol PO4/min/mg protein
Specific Activity − DNA (Human HeLa-JW, S10): 0.0 nmol PO4/min/mg protein
Specific Activity + DNA (Human MRC 5, P10S): 0.04 nmol PO4/min/mg protein
Specific Activity − DNA (Human MRC 5, P10S): 0.02 nmol PO4/min/mg protein
Specific Activity + DNA (Human MRC 5, S10): 0.30 nmol PO4/min/mg protein
Specific Activity − DNA (Human MRC 5, S10): 0.11 nmol PO4/min/mg protein
Specific Activity + DNA (Human Raji, P10S): 0.0 nmol PO4/min/mg protein
Specific Activity − DNA (Human Raji, P10S): 0.0 nmol PO4/min/mg protein
Specific Activity + DNA (Human Raji, S10): 0.0 nmol PO4/min/mg protein
Specific Activity − DNA (Human Raji, S10): 0.08 nmol PO4/min/mg protein
Specific Activity + DNA (Human T98G, P10S): 0.0 nmol PO4/min/mg protein
Specific Activity − DNA (Human T98G, P10S): 0.0 nmol PO4/min/mg protein
Specific Activity + DNA (Human T98G, S10): 0.01 nmol PO4/min/mg protein
Specific Activity − DNA (Human T98G, S10): 0.01 nmol PO4/min/mg protein
Sequence: EPPLSEQAFADLWKK [SEQ ID NO: 20]
phosphorylation of the peptide by cell extracts (in words) (all extracts of Example 11, with or without added DNA): None of the extracts phosphorylated the Ser-Glu-Gln peptide (SEQ ID NO: 20) at a significant rate
